From US20190359719A1 (published 2019) come the findings set out here.

Sequences and labels used below:
B1: D6 anti-c-Met antibody in IgG format (antibody, V domains shown)
VH: QVQLQQWGAGLLKPSETLSLTCAVYGGSFSGYYWSWIRQPPGKGLEWIGEINHSGSTNYNPSLKSRVTISVDTSKNQFSLKLSSVTAADTAVYYCARGRDGYDFDPWGQGTLVTVSS
VL: QSVLTQPPSASGSPGQSVTISCTGTSSDVGGYNYVSWYQQHPGKAPKLMIYEVSKRPSGVPDRFSGSKSGNTASLTVSGLQAEDEADYYCSSYAGSNNLVVFGGGTQLTVL
B2: A2 (antibody, V domains shown)
VH: QVQLQESGPGLVKPSGTLSLTCAVSGGSISRSNWWSWVRQPPGKGLEWIGEVYHSGSTNYNPSLKSRVTISVDKSKNQFSLKVNSVTAADTAVYYCARDSDGGYYFDYWGQGTLVTVSS
VL: LPVLTQPASVSGSPGQSITISCTGTSSDVGGYKYVSWYQQHPGKAPKLLIYDVTDRPSGVSNRFSGSQSGNTASLTISGLQTEDEADYYCSSYTDNGALVVFGGGTKLTVL
B3: A1-4 anti-c-Met antibody (antibody, V domains shown)
VH: QVQLQESGPGLVKPSQTLSLTCTVSGGSISSGGYYWSWIRQHPGKGLEWIGESSHSGSTNYNPSLKSRVTISVDTSKNQFSLKLSSVTAADTAVYYCARGRDGYYFDAWGQGTLVTVSS
VL: LPVLTQPASVSGSPGQSITISCTGTSSDVGGYPYVSWYQQHPGKAPKLMIYVVSDRPSGVSTRFSGSKSGNTASLTISGLQAEDEADYYCSSYRSSSALVVFGGGTQLTVL
B4: A1-24 anti-c-Met antibody (antibody, V domains shown)
VH: QVQLQESGPGLVKPSQTLSLTCTVSGGSISSGGYYWSWIRQHPGKGLEWIGESTHSGSTNYNPSLESRVTISVDTSKNQFSLKLSSVTAADTAVYYCARGRDSYDFDAWGQGTLVTVSS
VL: LPVLTQPASVSGSPGQSITISCTGTSFDVGGYNYVSWYQQHPGKAPKLMIYDVSDRPSGVSTRFSGSKSGNTASLTISGLQAEDEADYYCSSFRSSAALVVFGGGTKLTVL
B5: A1-2 anti-c-Met antibody (antibody, V domains shown)
VH: QVQLQESGPGLVKPSQTLSLTCTVSGGSISSGGYYWSWIRQHPGKGLEWIGESTHSGSTNYNPSLKSRVTISVDTSKNQFSLKLSSVTAADTAVYYCARGRDGYDFDAWGQGTLVTVSS
VL: LPVLTQPASVSGSPGQSITISCTGTSFDVGGYNYVSWYQQHPGKAPKLMIYDVSDRPSGVSTRFSGSKSGNTASLTISGLQAEDEADYYCSSFRSSSALVVFGGGTKLTVL
B6: A1-6 anti-c-Met antibody (antibody, V domains shown)
VH: QVQLQESGPGLVKPSQTLSLTCTVSGGSISSGGYYWSWIRQHPGKGLEWIGEITHSGSTNYNPSLKSRVTISVDTSKNQFSLKLSSVTAADTAVYYCARGRDGYDIDAWGQGTLVTVSS
VL: LPVLTQPASVSGSPGQSITISCTGTSWDVGGYPYVSWYQQHPGKAPKLMIYDVSDRPSGVSTRFSGSKSGNTASLTISGLQAEDEADYYCSSYRSVSALVVFGGGTKLTVL
B7: A1-9 anti-c-Met antibody (antibody, V domains shown)
VH: QVQLQESGPGLVKPSQTLSLTCTVSGGSISSGGYYWSWIRQHPGKGLEWIGEISHSGSTNYNPSLKSRVTISVDTSKNQFSLKLSSVTAADTAVYYCARGRDGYYLDQWGQGTLVTVSS
VL: LPVLTQPASVSGSPGQSITISCTGTSSDVGGYNYVSWYQQHPGKAPKLMIYNVSDRPSGVSTRFSGSKSGNTASLTISGLQAEDEADYYCSSFRSSSALVVFGGGTKLTVL
B8: A1-8 (antibody, V domains shown)
VH: QVQLQESGPGLVKPSQTLSLTCTVSGGSISSGGYYWSWIRQHPGKGLEWIGEISHSGSTNYNPSLESRVTISVDTSKNQFSLKLSSVTAADTAVYYCARGRDGYDLDRWGQGTLVTVSS
VL: LPVLTQPASVSGSPGQSITISCTGTSSDVGGYPYVSWYQQHPGKAPKLMIYRVSDRPSGVSTRFSGSKSGNTASLTISGLQAEDEADYYCSSYRSSAALVVFGGGTKLTVL
B9: A1-32 anti-c-Met antibody (antibody, V domains shown)
VH: QVQLQESGPGLVKPSQTLSLTCTVSGGSISSGGYYWSWIRQHPGKGLEWIGESTHSGSTNYNPSLDSRVTISVDTSKNQFSLKLSSVTAADTAVYYCARGRDGYYLDQWGQGTLVTVSS
VL: LPVLTQPASVSGSPGQSITISCTGTSFDVGGYPYVSWYQQHPGKAPKLMIYDVSDRPSGVSTRFSGSKSGNTASLTISGLQAEDEADYYCSSFRSSAALVVFGGGTKLTVL
B10: El-A18 (E1 derived anti-c-Met antibody) (antibody, V domains shown)
VH: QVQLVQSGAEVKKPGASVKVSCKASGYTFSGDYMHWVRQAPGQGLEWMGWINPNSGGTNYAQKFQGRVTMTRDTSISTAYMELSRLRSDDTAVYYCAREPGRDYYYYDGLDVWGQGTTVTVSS
VL: QSVVTQPPSVSGAPGQRVTISCIGSASNIGAGHDVHWYQQLPGTAPKLLIYGNSNRPSGVPDRFSGSKSGTSASLAITGLQAEDEADYYCQSYSSSLSAYVFGTGTKVTVL
B11: El-A11 (E1 derived anti-c-Met antibody) (antibody, V domains shown)
VH: QVQLVQSGAEVKKPGASVKVSCKASGFTFSGDYIHWVRQAPGQGLEWMGWINPNSGGTNYAQKFQGRVTMTRDTSISTAYMELSRLRSDDTAVYYCAREPARDYYYYDGLDVWGQGTTVTVSS
VL: QSVVTQPPSVSGAPGQRVTISCLGSSSNIGAGHDVHWYQQLPGTAPKLLIYGNSNRISGVPDRFSGSKSGTSASLAITGLQAEDEADYYCQSYSSSLSAYLFGTGTKVTVL
B12: El-B19 (E1 derived anti-c-Met antibody) (antibody, V domains shown)
VH: QVQLVQSGAEVKKPGASVKVSCKASGFTFSGDYIHWVRQAPGQGLEWMGWINPNSGGTNYAQKFQGRVTMTRDTSISTAYMELSRLRSDDTAVYYCAREPGRDYYYYDGLDVWGQGTTVTVSS
VL: QSVVTQPPSVSGAPGQRVTISCLGSASNIGAGHDVHWYQQLPGTAPKLLIYGNSNRPSGVPDRFSGSKSGTSASLAITGLQAEDEADYYCQSYSSSLSAVLFGTGTKVTVL
B13: El-BR1 (E1 derived anti-c-Met antibody) (antibody, V domains shown)
VH: QVQLVQSGAEVKKPGASVKVSCKASGSTFSGDYLHWVRQAPGQGLEWMGWINPNSGGTNYAQKFQGRVTMTRDTSISTAYMELSRLRSDDTAVYYCAREPARDYYYYDGLDVWGQGTTVTVSS
VL: QSVVTQPPSVSGAPGQRVTISCLGSASNIGAGYDVHWYQQLPGTAPKLLIYGNSNRPSGVPDRFSGSKSGTSASLAITGLQAEDEADYYCQSYSSSLSAVLFGTGTKVTVL
B14: El-B11 (E1 derived anti-c-Met antibody) (antibody, V domains shown)
VH: QVQLVQSGAEVKKPGASVKVSCKASGYTFSGDYIHWVRQAPGQGLEWMGWINPNSGGTNYAQKFQGRVTMTRDTSISTAYMELSRLRSDDTAVYYCAREPARDYYYYDGLDVWGQGTTVTVSS
VL: QSVVTQPPSVSGAPGQRVTISCIGSSSNIGAGYDVHWYQQLPGTAPKLLIYGNSNRISGVPDRFSGSKSGTSASLAITGLQAEDEADYYCQSYSSSLSAVLFGTGTKVTVL
B15: El-A10 (E1 derived anti-c-Met antibody) (antibody, V domains shown)
VH: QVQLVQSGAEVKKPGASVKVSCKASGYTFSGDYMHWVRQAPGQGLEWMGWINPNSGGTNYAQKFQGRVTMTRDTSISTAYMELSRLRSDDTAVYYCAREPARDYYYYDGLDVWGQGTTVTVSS
VL: QSVVTQPPSVSGAPGQRVTISCLGSASNIGAGHDVHWYQQLPGTAPKLLIYGNSNRPSGVPDRFSGSKSGTSASLAITGLQAEDEADYYCQSYSSSLSAYVFGTGTKVTVL
B16: El-A14 (E1 derived anti-c-Met antibody) (antibody, V domains shown)
VH: QVQLVQSGAEVKKPGASVKVSCKASGYTFSGDYIHWVRQAPGQGLEWMGWINPNSGGTNYAQKFQGRVTMTRDTSISTAYMELSRLRSDDTAVYYCAREPARDYYYYDGLDVWGQGTTVTVSS
VL: QSVVTQPPSVSGAPGQRVTISCIGSSSNIGAGHDVHWYQQLPGTAPKLLIYGNSNRPSGVPDRFSGSKSGTSASLAITGLQAEDEADYYCQSYSSSLSAYVFGTGTKVTVL
B17: H8 anti-c-Met antibody in IgG format (antibody, V domains shown)
VH: EVQLVQSGAEVKKPGASVKVSCKASGYTFSSYYMHWVRQAPGQGLEWMGWINPNSGNTGYAQKFQGRVTMTRNTSISTAYMELSSLRSEDTAVYYCARRGTTVSFDYWGQGTLVTVS
VL: QLVLTQSPSVSVAPGQRVTISCSGSNSNIGNNYVSWYHHLPGTAPKLLIYDNNKRPSGIPDRFSGSKSGTSATLGITGLQPGDEAHYYCGTWDSTLSAGVFGGGTKLTVL

For one assay, the target named is T1, recombinant c-Met extracellular domain (R&D Systems cat#358-MT-100/CF) (UniProt P08581 25-932).
T1 chain: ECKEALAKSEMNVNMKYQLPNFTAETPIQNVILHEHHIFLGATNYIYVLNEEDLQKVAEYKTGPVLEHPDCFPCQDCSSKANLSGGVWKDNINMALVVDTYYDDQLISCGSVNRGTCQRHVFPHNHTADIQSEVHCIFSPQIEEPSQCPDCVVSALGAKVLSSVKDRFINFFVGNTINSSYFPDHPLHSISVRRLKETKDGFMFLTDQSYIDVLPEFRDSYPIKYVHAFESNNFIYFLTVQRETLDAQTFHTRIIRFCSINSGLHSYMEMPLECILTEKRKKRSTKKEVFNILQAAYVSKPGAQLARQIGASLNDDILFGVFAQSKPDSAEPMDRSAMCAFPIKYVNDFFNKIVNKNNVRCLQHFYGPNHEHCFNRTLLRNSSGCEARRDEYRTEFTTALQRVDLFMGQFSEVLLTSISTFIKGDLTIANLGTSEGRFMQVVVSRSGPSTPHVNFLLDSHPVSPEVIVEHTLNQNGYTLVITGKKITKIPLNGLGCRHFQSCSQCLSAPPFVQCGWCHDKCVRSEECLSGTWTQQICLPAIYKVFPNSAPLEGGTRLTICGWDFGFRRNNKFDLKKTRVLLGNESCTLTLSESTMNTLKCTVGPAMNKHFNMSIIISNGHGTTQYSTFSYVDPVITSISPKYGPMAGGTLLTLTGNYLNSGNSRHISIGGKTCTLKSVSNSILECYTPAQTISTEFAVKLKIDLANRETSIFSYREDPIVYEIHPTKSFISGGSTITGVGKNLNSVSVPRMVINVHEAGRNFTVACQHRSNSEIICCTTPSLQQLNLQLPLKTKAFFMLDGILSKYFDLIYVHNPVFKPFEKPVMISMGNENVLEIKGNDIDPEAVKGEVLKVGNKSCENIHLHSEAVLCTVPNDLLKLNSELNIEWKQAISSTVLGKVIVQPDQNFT
Description: Octet Red (BLI). For orientation: Biolayer interferometry detects binding as a change in optical thickness at a sensor tip.
For orientation: Kd means a measure of binding affinity in units of concentration. Regarding B1, the Kd was determined as 1.9 nM.

As for B2, the Kd is 2.2 nM.

Another assay addresses T1, recombinant c-Met extracellular domain …. Description: ELISA, blocking of HGF binding to c-Met. (In general: An ELISA detects its analyte on a solid surface through an enzyme-linked reagent.)
Usually IC50 stands for the midpoint of a concentration-inhibition curve. Regarding B3, the IC50 was found to be 1.44 nM.

As to B4, the IC50 stood at 1.52 nM.

Take B5: the concentration for half-maximal inhibition (IC50) was 1.22 nM.

In the case of B6, the concentration for half-maximal inhibition (IC50) turned out to be 1.34 nM.

In the case of B7, the 50% inhibitory concentration (IC50) was found to be 1.72 nM.

Take B8: the IC50 came to 1.14 nM.

Regarding B9, the IC50 came to 0.91 nM.

A further assay shares this target. Description: ELISA, blocking of HGF binding to c-Met. The source holds these as a separate data set.
For B10, the concentration for half-maximal inhibition (IC50) turned out to be 2.69 nM.

B11: the IC50 worked out at 2.26 nM.

On to B12, for which the IC50 came to 2.63 nM.

Take B13: the IC50 came to 3.11 nM.

With B14, the IC50 is 2.98 nM.

Consider B15, for which the IC50 is 2.61 nM.

As for B16, the IC50 amounted to 2.31 nM.

Another assay shares this target. Description: Octet Red (BLI). The source holds these as a separate data set.
As to B17, the dissociation constant (Kd) was determined as 0.8 nM.
